Measured values: US20170145086A1 (VISTERRA, published 2017)

Columns and labels:
[1] = biological target: human TNFα (TNFSF2; Adipogen) (human, UniProt P01375 85-233, limits assumed); assay: indirect ELISA, cytokine coated
Protocol: (§1) Selected anti-APRIL antibodies were evaluated for potential cross-reactivity with other members of the TNFa superfamily (TNFSF) family of cytokines, including: human TNFα (TNFSF2; Adipogen), human […] (TNFSF4, Adipogen), human FasL (TNFSF6, Adipogen), human TRAIL (TNFSF10, Adipogen), human RANKL (TNFSF11; Adipogen), human Tweak (TNFSF12; Abcam), human and mouse BAFF (TNFSF13B, AB Biosciences and Adipogen, respectively), and human LIGHT (TNFSF14, Adipogen). These cytokines share variable degree of sequence as well as higher order structural homologies. Among them, BAFF appears to be the most closely related to APRIL, with 29% identity and 53% amino acid sequence similarity.
(§2) Binding was evaluated by an indirect ELISA protocol using similar methods described for evaluation of APRIL binding; cytokines were immobilized to ELISA plate at 50 ng per well and then exposed to a solution of each of the test antibodies at a fixed concentration of 10 μg/ml Anti-human or anti-mouse Ig-HRP polyclonal antibody conjugates (Jackson Laboratories) were used for detection of antibody binding. The results presented in FIG. 36 indicated eleven of the twelve antibodies tested in this assay to specifically bind APRIL with no measurable cross-reactivity with the other TNFSF members substantially above assay background.

[2] = biological target: T1, human FasL (TNFSF6, Adipogen) (human, UniProt P48023 103-281, limits assumed); assay: indirect ELISA, cytokine coated
T1 sequence (looked up): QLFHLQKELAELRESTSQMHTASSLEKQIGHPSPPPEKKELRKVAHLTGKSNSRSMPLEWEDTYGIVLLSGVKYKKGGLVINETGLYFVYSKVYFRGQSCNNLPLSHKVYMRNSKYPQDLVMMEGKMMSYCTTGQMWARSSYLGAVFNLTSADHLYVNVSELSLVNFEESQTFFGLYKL
Protocol: as §1, §2

[3] = biological target: human TRAIL (TNFSF10, Adipogen) (human, UniProt P50591 95-281, limits assumed); assay: indirect ELISA, cytokine coated
Protocol: as §1, §2

[4] = biological target: T2, human RANKL (TNFSF11; Adipogen) (human, UniProt O14788 152-317, limits assumed); assay: indirect ELISA, cytokine coated
T2 sequence (looked up): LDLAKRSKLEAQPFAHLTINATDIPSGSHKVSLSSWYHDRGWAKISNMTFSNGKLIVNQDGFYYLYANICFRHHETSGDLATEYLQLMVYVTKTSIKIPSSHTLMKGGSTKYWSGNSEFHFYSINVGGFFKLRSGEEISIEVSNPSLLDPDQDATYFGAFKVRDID
Protocol: as §1, §2

[5] = biological target: T3, human Tweak (TNFSF12; Abcam) (human, UniProt O43508 94-249, limits assumed); assay: indirect ELISA, cytokine coated
T3 sequence (looked up): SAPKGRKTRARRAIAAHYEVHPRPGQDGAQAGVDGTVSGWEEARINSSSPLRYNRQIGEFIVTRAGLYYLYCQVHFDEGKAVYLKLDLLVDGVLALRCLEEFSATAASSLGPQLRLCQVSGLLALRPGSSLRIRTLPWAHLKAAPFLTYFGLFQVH
Protocol: as §1, §2

[6] = biological target: human BAFF (TNFSF13B, AB Biosciences) (human, UniProt Q9Y275 134-285, limits assumed); assay: indirect ELISA, cytokine coated
Protocol: as §1, §2

[7] = biological target: mouse BAFF (TNFSF13B, Adipogen) (mouse, UniProt Q9WU72 127-309, limits assumed); assay: indirect ELISA, cytokine coated
Protocol: as §1, §2

[8] = biological target: human LIGHT (TNFSF14, Adipogen) (human, UniProt O43557 89-240, limits assumed); assay: indirect ELISA, cytokine coated
Protocol: as §1, §2

[9] = biological target: T4, HA-GCN4 hAPRIL (amino acid residues 105-250) (human, UniProt O75888 105-250); assay: blocking ELISA, 4-parameter fit; blocked: human APRIL binding to human BCMA-Fc
T4 construct: Bought (R&D Systems); also called HA-tagged GCN4 human APRIL; HA-GCN4-huAPRIL; not shown: N-terminal HA tag; GCN4 isoleucine zipper oligomerization domain
T4 sequence: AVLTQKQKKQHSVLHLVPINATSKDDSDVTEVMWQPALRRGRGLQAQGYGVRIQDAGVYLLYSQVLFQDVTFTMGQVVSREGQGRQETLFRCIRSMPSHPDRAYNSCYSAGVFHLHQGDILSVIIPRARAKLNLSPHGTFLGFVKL
Protocol: FIGS. 19A-19B depict the antibody inhibition of APRIL binding to TNFSF receptors TACI (FIG. 19A) and BCMA (FIG. 19B). Assay is based on blocking ELISA using recombinant human APRIL (R&D Systems) and Human TACI-Fc. Inhibition was analyzed by non-linear regression using a four parameter fit.
Recombinant TACI-Fc or BCMA-Fc was coated on 96 well plates in 0.1 M carbonate-bicarbonate buffer (pH 9.6), overnight at 4° C. Plates were washed three times with 1×PBST (PBS+0.025% Tween 20) followed by blocking with 1% BSA in 1×PBS, 37° C. for 1 hour. All subsequent wash steps were carried out with 1×PBST. To assess antibody blocking, either 15 ng/mL or 50 ng/mL HA-GCN4-huAPRIL was preincubated with varying antibody concentrations ranging from 0.03-30 μg/mL in binding buffer comprised of 1% BSA and 0.025% Tween-20 in 1×PBS. Preincubation was carried out at 30° C. for 1 hour with mixing. Antibody-APRIL premix with 50 ng/mL APRIL or 15 ng/mL APRIL was then added to TACI-Fc coated or BCMA-Fc coated plates, respectively, and incubated for an additional hour at 30° C. HA-tagged APRIL binding to either receptor was quantified using a goat polyclonal anti-HA tag-HRP antibody (Abcam) added at a 1:10000 dilution followed by colorimetric development using 100 μl/well of freshly prepared TMB substrate (KPL) carried out for up to 30 minutes at room temperature before quenching enzymatic reaction by the addition of 1N sulfuric acid. ELISA signal was quantified by absorbance at 450 nm. ELISA data was analyzed by non-linear regression. IC₅₀ values were calculated based on a 4 parameter fit of antibody titration curves. […] Non-blocking antibodies Aprly-1 or Aprly-5 (Enzo Biosciences) were used as negative controls. Mouse specific, blocking antibody aprily-1-1 (Adipogen) was generally used as a positive control in experiments using mouse APRIL (HA-GCN4-mAPRIL).

mouse BAFF (TNFSF13B, Adipogen), sequence (Q9WU72 127-309 limits assumed): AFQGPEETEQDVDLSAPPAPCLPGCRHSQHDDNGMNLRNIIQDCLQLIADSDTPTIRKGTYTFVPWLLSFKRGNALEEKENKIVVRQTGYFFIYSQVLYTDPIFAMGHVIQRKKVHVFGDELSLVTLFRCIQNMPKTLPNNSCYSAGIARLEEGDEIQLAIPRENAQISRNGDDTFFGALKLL
human TNFα (TNFSF2; Adipogen), sequence (P01375 85-233 limits assumed): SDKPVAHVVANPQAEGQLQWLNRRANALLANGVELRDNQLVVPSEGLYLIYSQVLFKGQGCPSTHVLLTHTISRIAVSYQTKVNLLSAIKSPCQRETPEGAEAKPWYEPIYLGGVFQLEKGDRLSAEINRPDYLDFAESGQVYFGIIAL
human TRAIL (TNFSF10, Adipogen), sequence (P50591 95-281 limits assumed): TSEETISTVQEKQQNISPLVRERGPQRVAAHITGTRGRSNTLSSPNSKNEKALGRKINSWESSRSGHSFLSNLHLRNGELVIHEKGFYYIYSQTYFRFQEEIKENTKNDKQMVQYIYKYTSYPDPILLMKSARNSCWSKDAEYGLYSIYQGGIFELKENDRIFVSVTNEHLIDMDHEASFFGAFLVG
human LIGHT (TNFSF14, Adipogen), sequence (O43557 89-240 limits assumed): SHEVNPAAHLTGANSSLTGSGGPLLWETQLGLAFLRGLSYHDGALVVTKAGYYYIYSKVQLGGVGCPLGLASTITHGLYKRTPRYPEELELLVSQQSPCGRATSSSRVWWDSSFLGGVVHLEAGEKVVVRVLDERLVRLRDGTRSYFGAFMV

- binding result [1]: no binding (tested: 10 µg/ml (p-1128))
- binding result [2]: no binding (tested: 10 µg/ml (p-1128))
- binding result [3]: no binding (tested: 10 µg/ml (p-1128))
- binding result [4]: no binding (tested: 10 µg/ml (p-1128))
- binding result [5]: no binding (tested: 10 µg/ml (p-1128))
- binding result [6]: no binding (tested: 10 µg/ml (p-1128))
- binding result [7]: no binding (tested: 10 µg/ml (p-1128))
- binding result [8]: no binding (tested: 10 µg/ml (p-1128))
- IC50 [9]: 560 pM
B1: 4237 (antibody, V domains shown)
VH: QAHLKESGPGLVAPSQSLSITCTVSGFSLTDYDVHWVRQSPGKGLEWLGVIWNDGSTDYNTAFISRLTISKDNSKSQVFFKMNSLQADDTAIYYCARNWYGGYWFAYWGQGTLVTVSA
VL: DIQMTQSPASLSASAGETVTITCRSSENIYSYLAWYQQKQGKSPQLLVYNANALAEGVPSRFSGSGSVTQFSLKINSLQPEDFGSYYCQHHYGTPFTFGSGTKLEIK
notes: also called monoclonal antibody 4237
